Molecular target: T1, ubiquitin-vinylmethylester (UniProt P0CG48 1-76, vinylmethylester (Michael acceptor) added to the C-terminus)
T1 construct: also called ubiquitin-VME; ubiquitin probe
Assay: covalent adduct formation with electrophilic (activity-based) probe, SDS-PAGE and Coomassie staining
Conditions: both partners purified

B1: His-tagged elaD, bacterially expressed (enzyme)
chain: MMVTVVSNYCQLSQTQLSQTFAEKFTVTEELLQSLKKTALSGDEESIELLHNIALGYDKFGKEAEDILYHIVRTPTNETLSIIRLIKNACLKLYNLAHIATNSPLKSHDSDDLLFKKLFSPSKLMTIIGDEIPLISEKQSLSKVLLNDENNELSDGTNFWDKNRQLTTDEIACYLQKIAANAKNTQVNYPTGLYVPYSTRTHLEDALNENIKSDPSWPNEVQLFPINTGGHWILVSLQKIVNKKNNKLQIKCVIFNSLRALGYDKENSLKRVINSFNSELMGEMSNNNIKVHLNEPEIIFLHADLQQYLSQSCGAFVCMAAQEVIEQRESNSDSAPYTLLKNHADRFKKYSAEEQYEIDFQHRLANRNCYLDKYGDANINHYYRNLEIKHSQPKNRASGKRVS
notes: also called recombinant elaD
B1: binds.

From publication PMC1847702 (PLoS ONE, 2007)
